# Data published in IntAct's records for PubMed 25910212.
# B1: Inactive peptidyl-prolyl cis-trans isomerase FKBP6 (Homo sapiens), O75344 (parent)
# chain: MGGSALNQGVLEGDDAPGQSLYERLSQRMLDISGDRGVLKDVIREGAGDLVAPDASVLVKYSGYLEHMDRPFDSNYFRKTPRLMKLGEDITLWGMELGLLSMRRGELARFLFKPNYAYGTLGCPPLIPPNTTVLFEIELLDFLDCAESDKFCALSAEQQDQFPLQKVLKVAATEREFGNYLFRQNRFYDAKVRYKRALLLLRRRSAPPEEQHLVEAAKLPVLLNLSFTYLKLDRPTIALCYGEQALIIDQKNAKALFRCGQACLLLTEYQKARDFLVRAQKEQPFNHDINNELKKLASCYRDYVDKEKEMWHRMFAPCGDGSTAGES
# partner: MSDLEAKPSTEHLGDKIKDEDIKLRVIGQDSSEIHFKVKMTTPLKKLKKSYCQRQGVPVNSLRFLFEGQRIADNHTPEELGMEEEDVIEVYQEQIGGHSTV
# B2: Keratin, type I cytoskeletal 18 (Homo sapiens), P05783 (parent)
# chain: MSFTTRSTFSTNYRSLGSVQAPSYGARPVSSAASVYAGAGGSGSRISVSRSTSFRGGMGSGGLATGIAGGLAGMGGIQNEKETMQSLNDRLASYLDRVRSLETENRRLESKIREHLEKKGPQVRDWSHYFKIIEDLRAQIFANTVDNARIVLQIDNARLAADDFRVKYETELAMRQSVENDIHGLRKVIDDTNITRLQLETEIEALKEELLFMKKNHEEEVKGLQAQIASSGLTVEVDAPKSQDLAKIMADIRAQYDELARKNREELDKYWSQQIEESTTVVTTQSAEVGAAETTLTELRRTVQSLEIDLDSMRNLKASLENSLREVEARYALQMEQLNGILLHLESELAQTRAEGQRQAQEYEALLNIKVKLEAEIATYRRLLEDGEDFNLGDALDSSNSMQTIQKTTTRRIVDGKVVSETNDTKVLRH
# B3: Neutrophil cytosol factor 2 (Homo sapiens), P19878 (parent)
# chain: MSLVEAISLWNEGVLAADKKDWKGALDAFSAVQDPHSRICFNIGCMYTILKNMTEAEKAFTRSINRDKHLAVAYFQRGMLYYQTEKYDLAIKDLKEALIQLRGNQLIDYKILGLQFKLFACEVLYNIAFMYAKKEEWKKAEEQLALATSMKSEPRHSKIDKAMECVWKQKLYEPVVIPVGKLFRPNERQVAQLAKKDYLGKATVVASVVDQDSFSGFAPLQPQAAEPPPRPKTPEIFRALEGEAHRVLFGFVPETKEELQVMPGNIVFVLKKGNDNWATVMFNGQKGLVPCNYLEPVELRIHPQQQPQEESSPQSDIPAPPSSKAPGRPQLSPGQKQKEEPKEVKLSVPMPYTLKVHYKYTVVMKTQPGLPYSQVRDMVSKKLELRLEHTKLSYRPRDSNELVPLSEDSMKDAWGQVKNYCLTLWCENTVGDQGFPDEPKESEKADANNQTTEPQLKKGSQVEALFSYEATQPEDLEFQEGDIILVLSKVNEEWLEGECKGKVGIFPKVFVEDCATTDLESTRREV
# Variants of: B1
# Conditions: with sumo5_human SUMO1P1, G2XKQ0
row,Variant,effect of a mutation on the interaction
1,F72L,disrupting interaction strength
2,R202H,with no effect

# Variants of: B2
# Conditions: with goga2_human GOLGA2, Q08379
# Target sequence in this assay (Q08379 whole entry): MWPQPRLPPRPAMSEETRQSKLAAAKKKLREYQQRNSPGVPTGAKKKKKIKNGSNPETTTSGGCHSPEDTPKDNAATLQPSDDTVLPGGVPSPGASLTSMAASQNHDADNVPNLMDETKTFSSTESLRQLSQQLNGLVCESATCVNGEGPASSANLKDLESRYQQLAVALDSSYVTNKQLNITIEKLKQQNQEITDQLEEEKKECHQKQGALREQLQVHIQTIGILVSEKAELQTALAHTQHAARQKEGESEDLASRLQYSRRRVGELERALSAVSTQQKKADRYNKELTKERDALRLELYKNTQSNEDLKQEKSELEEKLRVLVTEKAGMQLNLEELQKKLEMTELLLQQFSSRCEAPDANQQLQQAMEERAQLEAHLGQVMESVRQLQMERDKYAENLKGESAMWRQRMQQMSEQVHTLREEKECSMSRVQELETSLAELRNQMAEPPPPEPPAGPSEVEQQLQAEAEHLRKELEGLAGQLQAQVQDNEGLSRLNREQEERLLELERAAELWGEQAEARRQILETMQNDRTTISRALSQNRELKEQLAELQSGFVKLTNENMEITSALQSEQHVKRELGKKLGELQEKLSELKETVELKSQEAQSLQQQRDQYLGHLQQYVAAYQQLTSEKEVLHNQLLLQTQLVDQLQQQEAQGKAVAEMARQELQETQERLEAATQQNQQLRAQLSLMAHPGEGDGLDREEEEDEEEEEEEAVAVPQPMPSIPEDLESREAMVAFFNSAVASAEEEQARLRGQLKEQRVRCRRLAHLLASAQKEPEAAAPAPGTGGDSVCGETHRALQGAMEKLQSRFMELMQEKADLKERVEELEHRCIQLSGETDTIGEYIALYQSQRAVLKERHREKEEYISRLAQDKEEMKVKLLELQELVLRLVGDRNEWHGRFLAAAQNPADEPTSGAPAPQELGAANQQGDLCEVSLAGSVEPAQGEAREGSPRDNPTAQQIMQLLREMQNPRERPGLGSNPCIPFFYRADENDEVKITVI
row,Variant,effect of a mutation on the interaction
1,T103A,disrupting interaction strength
2,H128L,with no effect
3,Q285R,disrupting interaction strength
4,G340R,disrupting interaction strength

# Variants of: B2
# Conditions: with hgs_human HGS
row,Variant,effect of a mutation on the interaction
1,T103A,disrupting interaction strength
2,H128L,with no effect
3,Q285R,disrupting interaction strength
4,G340R,disrupting interaction strength

# Variants of: B2
# Conditions: with syce1_human SYCE1, Q8N0S2
# Sequence of syce1_human SYCE1, Q8N0S2 (Q8N0S2 whole entry): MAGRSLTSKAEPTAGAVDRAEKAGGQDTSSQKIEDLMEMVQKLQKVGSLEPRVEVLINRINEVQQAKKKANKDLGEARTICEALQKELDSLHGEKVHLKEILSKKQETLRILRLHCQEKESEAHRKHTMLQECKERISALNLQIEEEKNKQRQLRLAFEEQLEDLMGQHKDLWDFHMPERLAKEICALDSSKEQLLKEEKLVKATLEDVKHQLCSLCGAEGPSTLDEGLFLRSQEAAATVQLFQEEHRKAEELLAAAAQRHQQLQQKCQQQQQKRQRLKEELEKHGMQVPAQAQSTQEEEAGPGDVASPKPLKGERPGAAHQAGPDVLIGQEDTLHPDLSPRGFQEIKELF
row,Variant,effect of a mutation on the interaction
1,T103A,disrupting interaction strength
2,H128L,with no effect
3,Q285R,with no effect
4,G340R,with no effect

# Variants of: B3
# Conditions: with goga2_human GOLGA2, Q08379
# Target sequence in this assay (Q08379 whole entry): as the sequence (Q08379 whole entry) above
row,Variant,effect of a mutation on the interaction
1,R77Q,disrupting interaction strength
2,G78E,disrupting interaction strength
3,R395W,with no effect
4,N419I,with no effect

# Variants of: B3
# Conditions: with kifa3_human KIFAP3, Q92845
# Sequence of kifa3_human KIFAP3, Q92845 (Q92845 whole entry): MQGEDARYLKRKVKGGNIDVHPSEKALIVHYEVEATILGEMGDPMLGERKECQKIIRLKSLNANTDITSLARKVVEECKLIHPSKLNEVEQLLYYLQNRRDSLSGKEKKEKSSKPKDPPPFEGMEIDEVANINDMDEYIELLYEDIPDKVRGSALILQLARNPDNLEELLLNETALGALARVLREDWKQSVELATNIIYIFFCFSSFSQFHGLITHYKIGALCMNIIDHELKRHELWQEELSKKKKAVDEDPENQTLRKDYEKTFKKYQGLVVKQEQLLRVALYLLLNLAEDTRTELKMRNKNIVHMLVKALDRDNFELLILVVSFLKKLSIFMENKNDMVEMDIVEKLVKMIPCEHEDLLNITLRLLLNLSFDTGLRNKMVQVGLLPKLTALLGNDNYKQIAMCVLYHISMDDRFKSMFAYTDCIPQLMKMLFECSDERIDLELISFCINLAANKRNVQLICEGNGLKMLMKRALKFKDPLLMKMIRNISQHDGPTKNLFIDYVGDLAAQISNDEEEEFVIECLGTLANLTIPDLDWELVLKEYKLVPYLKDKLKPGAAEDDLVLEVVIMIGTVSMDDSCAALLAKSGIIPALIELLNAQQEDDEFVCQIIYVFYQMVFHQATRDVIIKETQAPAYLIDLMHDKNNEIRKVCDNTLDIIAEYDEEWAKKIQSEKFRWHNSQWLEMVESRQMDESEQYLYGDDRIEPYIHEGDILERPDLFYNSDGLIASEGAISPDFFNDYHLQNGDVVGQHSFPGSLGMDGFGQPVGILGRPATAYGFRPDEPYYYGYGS
row,Variant,effect of a mutation on the interaction
1,R77Q,disrupting interaction strength
2,G78E,disrupting interaction strength
3,R395W,with no effect
4,N419I,with no effect
